Laboratory results published in publication PMC5727384, “A pH-gated conformational switch regulates the phosphatase activity of bifunctional HisKA-family histidine kinases” (Nature Communications, 2017).
Blank lines part the entries; values can stand above or below the molecule they belong to.

B1: Cytoplasmic portion of HK853 (HK853^cp), wild type, residues 232–489 (domain or fragment, Thermotoga maritima, UniProt Q9WZV7 232-489, looked up)
chain: VENVTESKELERLKRIDRMKTEFIANISHELRTPLTAIKAYAETIYNSLGELDLSTLKEFLEVIIDQSNHLENLLNELLDFSRLERKSLQINREKVDLCDLVESAVNAIKEFASSHNVNVLFESNVPCPVEAYIDPTRIRQVLLNLLNNGVKYSKKDAPDKYVKVILDEKDGGVLIIVEDNGIGIPDHAKDRIFEQFYRVDSSLTYEVPGTGLGLAITKEIVELHGGRIWVESEVGKGSRFFVWIPKDRAGEDNRQDN
notes: Histidine kinase HK853, Thermotoga maritima, cytoplasmic portion (DHp and CA domains), residues 232–489; Crystallised with AMPPNP, which was captured as ADP; also called wild-type HK853^cp; source: E. coli BL21(DE3) Gold, purified (ammonium sulfate precipitation, anion-exchange, size-exclusion)
B2: BeF3−-RR468 (BeF3−-conjugated form of the response regulator RR468 from Thermotoga maritima) (natural protein)
chain: MSKKVLLVDDSAVLRKIVSFNLKKEGYEVIEAENGQIALEKLSEFTPDLIVLDIMMPVMDGFTVLKKLQEKEEWKRIPVIVLTAKGGEEDESLALSLGARKVMRKPFSPSQFIEEVKHLLNE
modifications: BeF3− on D53 (beryllium atom forming a covalent bond with the phosphate-accepting residue D53; phosphoryl analog)
notes: Response regulator RR468, cognate response regulator of HK853, Thermotoga maritima; Generated by adding 5 mM BeCl2 and 50 mM NaF to RR468 (NMR) or 5 mM BeCl2 and 30 mM NaF (crystallisation); Mg2+ in the active site; source: E. coli BL21(DE3) Gold, purified (incubation at 60 °C, anion-exchange, size-exclusion); BeF3− added as BeCl2 and NaF
B3: T264A mutant of the cytoplasmic portion of HK853 (T264A HK853^cp) (domain or fragment, Thermotoga maritima, UniProt Q9WZV7 232-489, looked up)
chain: VENVTESKELERLKRIDRMKTEFIANISHELRAPLTAIKAYAETIYNSLGELDLSTLKEFLEVIIDQSNHLENLLNELLDFSRLERKSLQINREKVDLCDLVESAVNAIKEFASSHNVNVLFESNVPCPVEAYIDPTRIRQVLLNLLNNGVKYSKKDAPDKYVKVILDEKDGGVLIIVEDNGIGIPDHAKDRIFEQFYRVDSSLTYEVPGTGLGLAITKEIVELHGGRIWVESEVGKGSRFFVWIPKDRAGEDNRQDN
notes: Histidine kinase HK853, Thermotoga maritima, cytoplasmic portion (residues 232–489 as stated for HK853^cp), with T264A; also called HK853^cp T264A mutant

Assays:
[1] = molecular target: T1, HK853^cp-BeF3 ^−-RR468 complex (nucleotide site of HK853^cp) (Thermotoga maritima, UniProt Q9WZV7); test: X-ray crystal structure, […] A; assay type: binding; conditions: pH 5.0; Mg2+; crystallised with 4 mM AMPPNP, hydrolysed to ADP; ATP site of HK853 CA domain
T1 construct: gene TM_0853; HK853 cytoplasmic portion (DHp and CA domains, residues 232-489), with RR468; heterotetramer of two HK853cp and two RR468; expressed in E. coli; with Response regulator
T1 sequence (Q9WZV7 232-489): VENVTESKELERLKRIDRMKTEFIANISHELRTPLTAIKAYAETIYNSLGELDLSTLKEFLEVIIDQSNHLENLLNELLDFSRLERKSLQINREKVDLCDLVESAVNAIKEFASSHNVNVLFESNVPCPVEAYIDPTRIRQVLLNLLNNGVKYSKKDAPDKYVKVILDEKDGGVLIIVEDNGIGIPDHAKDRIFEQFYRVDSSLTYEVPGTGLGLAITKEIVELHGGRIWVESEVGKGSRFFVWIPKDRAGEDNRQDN
T1 sequence (Q9WYT9 1-122 partner): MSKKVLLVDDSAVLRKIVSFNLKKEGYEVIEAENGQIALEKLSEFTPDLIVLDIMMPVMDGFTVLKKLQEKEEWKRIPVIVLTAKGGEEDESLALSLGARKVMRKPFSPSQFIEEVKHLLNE

[2] = molecular target: T2, HK853^DHp-BeF3 ^−-RR468 complex (Thermotoga maritima, UniProt Q9WYT9); conditions: pH 7.0; Mg2+; 298 K; covalent to D53 of RR468; 10-fold excess of HK853 DHp
T2 construct: gene TM_0468

[3] = molecular target: T3, HK853^cp-BeF3 ^−-RR468 complex (active site of RR468) (Thermotoga maritima, UniProt Q9WYT9); conditions: pH 5.0; Mg2+; covalent to D53 of RR468
T3 construct: gene TM_0468

[4] = molecular target: T4, RR468 (Thermotoga maritima, UniProt Q9WYT9); conditions: pH 7.0; Mg2+; 298 K; covalent Be bond to D53; formed from 5 mM BeCl2 and 50 mM NaF
T4 construct: gene TM_0468

[5] = molecular target: the molecule itself; test: crystal structure; HK853^cp (wild type or T264A) with RR468, BeF3− and AMPPNP (captured as ADP), crystallised at pH 5.0 (citric acid, ammonium sulfate)
[6] = molecular target: B3; test: as above; conditions: both partners purified
[7] = molecular target: B1; test: as above; conditions: both partners purified
[8] = molecular target: B2; test: NMR titration; 19F NMR of BeF3−-RR468, HK853^DHp or mutants added at a concentration 10-fold higher than BeF3−-RR468; pH 7.0; 20 mM HEPES, 50 mM KCl, 10 mM MgCl2; 298 K; conditions: both partners purified

Molecule: Nc1ncnc2c1ncn2[C@@H]1O[C@H](COP(=O)(O)OP(=O)(O)O)[C@@H](O)[C@H]1O [ADP]
X-ray crystal structure, 2.68 A [1]: The AMPPNP is captured in the hydrolyzed form of ADP

Molecule: [F][Be-]([F])[F] [BeF3 ^−]
19F NMR [2]: indicating the formation of the HK853^DHp-BeF3 ^−-RR468 complex | X-ray crystal structure, 2.68 A [3]: reveals a heterotetrameric complex consisting of two HK853^cp and two BeF3 ^−-RR468 | 19F NMR [4]: we were able to detect three broad fluorine signals from the protein-bound BeF3 ^−

Molecule: B1
binding result [5]: binds

Molecule: B2
binding result [6]: binds | binding result [7]: binds

Molecule: B3
binding result [5]: binds

binding result [8]: binds
B4: DHp domain of HK853 (HK853^DHp), wild type, residues 250–315 (domain or fragment, Thermotoga maritima, UniProt Q9WZV7 250-315, looked up)
chain: MKTEFIANISHELRTPLTAIKAYAETIYNSLGELDLSTLKEFLEVIIDQSNHLENLLNELLDFSRL
notes: Histidine kinase HK853, Thermotoga maritima, dimerization and histidine-containing phosphotransfer (DHp) domain, residues 250–315; also called wild-type HK853^DHp; not shown: His6, N-terminal, cleaved; MBP, N-terminal, cleaved

binding result [8]: binds
B5: H260A mutant of the DHp domain of HK853 (H260A HK853^DHp), residues 250–315 (domain or fragment, Thermotoga maritima, UniProt Q9WZV7 250-315, looked up)
chain: MKTEFIANISAELRTPLTAIKAYAETIYNSLGELDLSTLKEFLEVIIDQSNHLENLLNELLDFSRL
notes: Histidine kinase HK853, Thermotoga maritima, DHp domain, residues 250–315, with H260A; not shown: His6, N-terminal, cleaved; MBP, N-terminal, cleaved

binding result [8]: binds
B6: T264A mutant of the DHp domain of HK853 (T264A HK853^DHp), residues 250–315 (domain or fragment, Thermotoga maritima, UniProt Q9WZV7 250-315, looked up)
chain: MKTEFIANISHELRAPLTAIKAYAETIYNSLGELDLSTLKEFLEVIIDQSNHLENLLNELLDFSRL
notes: Histidine kinase HK853, Thermotoga maritima, DHp domain, residues 250–315, with T264A; also called T264A HK853 mutant; not shown: His6, N-terminal, cleaved; MBP, N-terminal, cleaved
